The values that follow are results of earlier work, collected in paper PMC9252436.

Usually Kd stands for the constant that tells how readily two partners part at equilibrium.

The data set has as its target CD47 (Homo sapiens) (UniProt Q08722).
UniProt Q08722, sequence (Q08722 19-323): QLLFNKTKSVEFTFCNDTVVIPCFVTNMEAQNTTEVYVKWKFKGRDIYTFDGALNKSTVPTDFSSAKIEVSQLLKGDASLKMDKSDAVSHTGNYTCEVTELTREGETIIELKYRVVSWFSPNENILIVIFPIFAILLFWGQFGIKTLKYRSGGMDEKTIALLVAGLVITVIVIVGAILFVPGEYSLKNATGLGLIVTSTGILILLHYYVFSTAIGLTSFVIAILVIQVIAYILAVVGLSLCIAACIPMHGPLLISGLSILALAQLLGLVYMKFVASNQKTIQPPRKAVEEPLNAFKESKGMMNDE

Consider SIRPα (from UniProt P78324), for which the Kd is 16 nM.
